These results are taken from paper PMC4788097 (Structure (London, England : 1993), 2013).

In assay [1] the target is T1, Stx6 (3-110) (human, UniProt O43752 3-110).
T1 sequence (looked up): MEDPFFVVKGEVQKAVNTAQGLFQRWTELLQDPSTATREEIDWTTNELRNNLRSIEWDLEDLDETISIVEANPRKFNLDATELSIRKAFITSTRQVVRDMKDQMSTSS
Nature of the assay: crystal structure.

In another assay the target is T2, Stx10 (1-110) (human, UniProt O60499 1-110).
T2 sequence (looked up): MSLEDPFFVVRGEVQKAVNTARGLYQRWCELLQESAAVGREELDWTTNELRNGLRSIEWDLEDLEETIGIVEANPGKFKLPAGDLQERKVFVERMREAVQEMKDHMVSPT
Nature of the assay: ITC. Background: In ITC the heat of successive injections is recorded.

Assay [2] concerns the target T1, Stx6 (3-110). Kind of assay: ITC.

Take AHGMLKLYYGLSEGEAA [Ang2 peptide 33AHGMLKLYYGLSEGEAA49]: the binding result with Stx6 (3-110) [1] is “binds”.

B1: Ang2 (1-69) (domain or fragment, human, UniProt Q9UID3 1-69, looked up)
chain: MAAAAAAGPSPGSGPGDSPEGPEGEAPERRRKAHGMLKLYYGLSEGEAAGRPAGPDPLDPTDLNGAHFD
In general, Kd refers to the concentration at which binding is half-saturated. A high value points to a looser complex. As usually defined, the stoichiometry N is a count of units in the complex or per binding partner. Consider B1, for which the Kd with Stx10 (1-110) was 6.5 ± 0.8 µM; in the assay with Stx6 (3-110) [2] it was 5.6 ± 0.7 µM. In addition, the “stoichiometry N” value with Stx10 (1-110) amounted to 0.7; in the assay with Stx6 (3-110) [2] it was 0.8.
